Data from paper PMC6486627, “Structural basis for RNA translocation by DEAH-box ATPases” (Nucleic Acids Research, 2019).

How the values were obtained:
ctPrp43 = biological target: T1, ctPrp43 (Thermochaetoides thermophila, UniProt G0RY84); assay: NADH-coupled ATPase assay (pyruvate kinase / lactate dehydrogenase), […] nm; type: biochemical; settings: no RNA; no G-patch protein; 25 mM Bis-Tris propane pH 7.5, 150 mM KCl, 3 mM MgCl2, 25 °C; 5 uM enzyme; ATP 0-2 mM
T1 construct: gene CTHT_0005780; truncated, residues 61-764; GST fusion, tag cleaved by TEV; E. coli Rosetta 2 (DE3); no G-patch protein
T1 sequence (G0RY84 entry or part of it): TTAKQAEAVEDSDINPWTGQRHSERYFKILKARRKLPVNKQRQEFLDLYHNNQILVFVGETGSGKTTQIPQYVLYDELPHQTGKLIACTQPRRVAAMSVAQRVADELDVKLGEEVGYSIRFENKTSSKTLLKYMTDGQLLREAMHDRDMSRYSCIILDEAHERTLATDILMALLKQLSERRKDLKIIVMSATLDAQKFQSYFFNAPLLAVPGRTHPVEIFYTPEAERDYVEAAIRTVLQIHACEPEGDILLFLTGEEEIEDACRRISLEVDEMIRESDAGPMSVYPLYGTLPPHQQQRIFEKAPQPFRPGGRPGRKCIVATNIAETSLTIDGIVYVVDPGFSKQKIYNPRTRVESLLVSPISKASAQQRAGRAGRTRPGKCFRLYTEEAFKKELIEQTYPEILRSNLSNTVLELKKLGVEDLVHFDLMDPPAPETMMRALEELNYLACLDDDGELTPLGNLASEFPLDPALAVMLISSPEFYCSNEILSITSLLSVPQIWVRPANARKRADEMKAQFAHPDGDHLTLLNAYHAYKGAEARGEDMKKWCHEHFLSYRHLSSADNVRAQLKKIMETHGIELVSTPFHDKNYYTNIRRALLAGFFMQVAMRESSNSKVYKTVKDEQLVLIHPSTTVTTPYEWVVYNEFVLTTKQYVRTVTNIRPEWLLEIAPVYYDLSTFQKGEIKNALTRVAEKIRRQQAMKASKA

purified protein = substrate: Nc1ncnc2c1ncn2[C@@H]1O[C@H](COP(=O)(O)OP(=O)(O)OP(=O)(O)O)[C@@H](O)[C@H]1O; assay: purified protein; type: biochemical, Thermochaetoides thermophila; settings: no RNA, 25 mM Bis-Tris propane pH 7.5, 150 mM KCl, 3 mM MgCl2, 25 °C, 0.4 uM enzyme, ATP 0-2 mM

Molecule	Km (ctPrp43) [µM]	Km (purified protein) [µM]	kcat (purified protein) [s⁻¹]
Nc1ncnc2c1ncn2[C@@H]1O[C@H](COP(=O)(O)OP(=O)(O)OP(=O)(O)O)[C@@H](O)[C@H]1O [ATP]	21.1 ± 3.88	–	–
ctPrp22 (Thermochaetoides thermophila DSM 1495) (protein, N-terminally truncated, lacks first 545 residues (S1 motif omitted); GST fusion from pGEX-6p1, tag cleaved by TEV; E. coli Rosetta 2 (DE3)) TNMSIKEQRESLPVFQFRDQIIQAVKDNQILIVVGETGSGKTTQVTQYLAEAGFTKYGMIGCTQPRRVAAVSVAKRVAEEVGCQLGQEVGYTIRFEDVTSPATKIKYMTDGMLQREILMDPDLKRYSVIMLDEAHERTIATDVLFALLKKTVKRRPDLKVIVTSATLDAEKFSEYFNSCPIFTIPGRTFPVEILYSREPEPDYLEAALTTVMQIHLTEPPGDILVFLTGQEEIDTACEILYERMKALGPSVPELIILPIYSALPSEMQSRIFEPAPPGSRKVVIATNIAETSITIDYIYYVVDPGFVKQNAYDPKLGMDSLVVTPISQAQANQRAGRAGRTGPGKCFRLYTEAAYQSEMLPTTIPDIQRQNLANTILLLKAMGINDLLRFDFMDPPPVNTMLTALEELYALGALDDEGLLTRLGRKMADFPMEPSLSKVLIASVDKGCSDEMVTIVSMLNLQQIFYRPKDKQQQADQKKAKFHDPTGDHLTLLNVYNAWKNSGYSNAWCFENYIQARAMRRARDVRQQIVKIMERHRHPIISCGRDTDKIRQALCAGFFRNTARKDPQEGYKTLTEGTPVYLHPSSALFGKQAEWVLYHELVLTTKEYMHFTTAIEPKWLVEAAPTFFKLAPTDRLSKRKKAERIQPLYNKYEGEDGWRLSAQRRAARPGGGGGTWG	–	34.53 ± 1.74	0.559 ± 0.00483
ctPrp22 (Thermochaetoides thermophila DSM 1495; S837A) (protein, N-terminally truncated, lacks first 545 residues (S1 motif omitted); GST fusion from pGEX-6p1, tag cleaved by TEV; E. coli Rosetta 2 (DE3)) TNMSIKEQRESLPVFQFRDQIIQAVKDNQILIVVGETGSGKTTQVTQYLAEAGFTKYGMIGCTQPRRVAAVSVAKRVAEEVGCQLGQEVGYTIRFEDVTSPATKIKYMTDGMLQREILMDPDLKRYSVIMLDEAHERTIATDVLFALLKKTVKRRPDLKVIVTSATLDAEKFSEYFNSCPIFTIPGRTFPVEILYSREPEPDYLEAALTTVMQIHLTEPPGDILVFLTGQEEIDTACEILYERMKALGPSVPELIILPIYSALPSEMQSRIFEPAPPGSRKVVIATNIAETAITIDYIYYVVDPGFVKQNAYDPKLGMDSLVVTPISQAQANQRAGRAGRTGPGKCFRLYTEAAYQSEMLPTTIPDIQRQNLANTILLLKAMGINDLLRFDFMDPPPVNTMLTALEELYALGALDDEGLLTRLGRKMADFPMEPSLSKVLIASVDKGCSDEMVTIVSMLNLQQIFYRPKDKQQQADQKKAKFHDPTGDHLTLLNVYNAWKNSGYSNAWCFENYIQARAMRRARDVRQQIVKIMERHRHPIISCGRDTDKIRQALCAGFFRNTARKDPQEGYKTLTEGTPVYLHPSSALFGKQAEWVLYHELVLTTKEYMHFTTAIEPKWLVEAAPTFFKLAPTDRLSKRKKAERIQPLYNKYEGEDGWRLSAQRRAARPGGGGGTWG	–	33.15 ± 2.24	0.8948 ± 0.0107
ctPrp22 (Thermochaetoides thermophila DSM 1495; S837G) (protein, N-terminally truncated, lacks first 545 residues (S1 motif omitted); GST fusion from pGEX-6p1, tag cleaved by TEV; E. coli Rosetta 2 (DE3)) TNMSIKEQRESLPVFQFRDQIIQAVKDNQILIVVGETGSGKTTQVTQYLAEAGFTKYGMIGCTQPRRVAAVSVAKRVAEEVGCQLGQEVGYTIRFEDVTSPATKIKYMTDGMLQREILMDPDLKRYSVIMLDEAHERTIATDVLFALLKKTVKRRPDLKVIVTSATLDAEKFSEYFNSCPIFTIPGRTFPVEILYSREPEPDYLEAALTTVMQIHLTEPPGDILVFLTGQEEIDTACEILYERMKALGPSVPELIILPIYSALPSEMQSRIFEPAPPGSRKVVIATNIAETGITIDYIYYVVDPGFVKQNAYDPKLGMDSLVVTPISQAQANQRAGRAGRTGPGKCFRLYTEAAYQSEMLPTTIPDIQRQNLANTILLLKAMGINDLLRFDFMDPPPVNTMLTALEELYALGALDDEGLLTRLGRKMADFPMEPSLSKVLIASVDKGCSDEMVTIVSMLNLQQIFYRPKDKQQQADQKKAKFHDPTGDHLTLLNVYNAWKNSGYSNAWCFENYIQARAMRRARDVRQQIVKIMERHRHPIISCGRDTDKIRQALCAGFFRNTARKDPQEGYKTLTEGTPVYLHPSSALFGKQAEWVLYHELVLTTKEYMHFTTAIEPKWLVEAAPTFFKLAPTDRLSKRKKAERIQPLYNKYEGEDGWRLSAQRRAARPGGGGGTWG	–	24.79 ± 0.93	0.9228 ± 0.00583
